According to patent US20230338555A1 (IONIS PHARMACEUTICALS, published 2023):
Where two headings read alike, the source gives them in different places. Ends that are not written are not given here. * marks the point of attachment. Azidoacetyl = [N-]=[N+]=NCC(=O)*

T1: human sortilin stably expressed on HEK 293 cells (HEK-SORT1 cells) (human, UniProt Q99523 78-831)
T1 sequence (looked up): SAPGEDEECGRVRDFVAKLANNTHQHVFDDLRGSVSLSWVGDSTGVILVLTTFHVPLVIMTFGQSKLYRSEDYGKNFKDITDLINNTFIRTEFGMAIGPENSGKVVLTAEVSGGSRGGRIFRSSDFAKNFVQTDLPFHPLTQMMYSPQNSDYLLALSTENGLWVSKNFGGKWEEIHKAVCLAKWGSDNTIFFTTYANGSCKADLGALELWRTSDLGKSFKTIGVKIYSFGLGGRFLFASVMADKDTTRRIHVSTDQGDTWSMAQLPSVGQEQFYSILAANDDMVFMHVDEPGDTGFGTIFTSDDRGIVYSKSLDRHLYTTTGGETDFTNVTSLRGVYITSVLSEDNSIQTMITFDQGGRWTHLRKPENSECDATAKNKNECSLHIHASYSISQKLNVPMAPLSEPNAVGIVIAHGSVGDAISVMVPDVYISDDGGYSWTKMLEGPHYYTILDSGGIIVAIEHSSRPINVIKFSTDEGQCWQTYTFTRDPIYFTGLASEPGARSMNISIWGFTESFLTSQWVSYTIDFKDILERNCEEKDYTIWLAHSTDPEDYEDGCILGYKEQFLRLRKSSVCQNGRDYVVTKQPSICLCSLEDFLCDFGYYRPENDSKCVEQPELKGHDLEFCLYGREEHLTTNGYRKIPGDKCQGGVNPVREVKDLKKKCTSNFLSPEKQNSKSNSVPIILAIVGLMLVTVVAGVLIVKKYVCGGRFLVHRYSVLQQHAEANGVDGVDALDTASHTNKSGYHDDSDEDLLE


Experiments:
Test in all cases: cell-based or functional assay
[1] = target: T1, human sortilin stably expressed on HEK …
[2] = target: T1, human sortilin stably expressed on HEK …; remark: listed apart in the source
[3] = target: T1, human sortilin stably expressed on HEK …; remark: listed apart in the source
[4] = target: T1, human sortilin stably expressed on HEK …; remark: listed apart in the source
[5] = target: T1, human sortilin stably expressed on HEK …; remark: listed apart in the source
[6] = target: T1, human sortilin stably expressed on HEK …; remark: listed apart in the source

Binder | Mean Fluorescence Intensity (MFI), uptake 37C-4C, at 12 nM [1] | Mean Fluorescence Intensity (MFI), uptake 37C-4C, at 37 nM [1] | Mean Fluorescence Intensity (MFI), uptake 37C-4C, at 111 nM [1] | Mean Fluorescence Intensity (MFI), uptake 37C-4C, at 333 nM [1] | Mean Fluorescence Intensity (MFI), uptake 37C-4C, at 1000 nM [1] | Mean Fluorescence Intensity (MFI), uptake 37C-4C, at 7 nM [3] | Mean Fluorescence Intensity (MFI), uptake 37C-4C, at 22 nM [3] | Mean Fluorescence Intensity (MFI), uptake 37C-4C, at 76 nM [3] | Mean Fluorescence Intensity (MFI), uptake 37C-4C, at 260 nM [3] | Mean Fluorescence Intensity (MFI), uptake 37C-4C, at 882 nM [3] | Mean Fluorescence Intensity (MFI), uptake 37C-4C, at 3000 nM [3] | further results
LYENXPRRPYIL (not fully specified; position 1 is SO5P (5-oxoproline); internal lysine (LYEN-K) carries the azido-acetyl group joined to Cy3-BCN reagent (Cy3 label)) [Compound 17-AE-9199, Cy3-labeled [SO5P]LYEN[azido-acetyl-K]PRRPYIL peptide] | 174 MFI | 378 MFI | 825 MFI | 1090 MFI | 1220 MFI |  |  |  |  |  |  | 
KPPPAGSSPGLYENKPRRPYIL (not fully specified (residue 1); also: Cy3 label attached by BCN click to the azide) [Compound 17-AH-1492, Cy3-labeled extended neurotensin (eNT, …)] | 167 MFI | 390 MFI | 724 MFI | 1030 MFI | 1260 MFI | 84 MFI | 266 MFI | 593 MFI | 869 MFI | 1180 MFI | 1440 MFI | Mean Fluorescence Intensity (MFI), uptake 37C-4C, at 12 nM [2]: 108 MFI; Mean Fluorescence Intensity (MFI), uptake 37C-4C, at 37 nM [2]: 334 MFI; Mean Fluorescence Intensity (MFI), uptake 37C-4C, at 111 nM [2]: 763 MFI; Mean Fluorescence Intensity (MFI), uptake 37C-4C, at 333 nM [2]: 1100 MFI; Mean Fluorescence Intensity (MFI), uptake 37C-4C, at 1000 nM [2]: 1360 MFI
LYENXPRRPYIL (not fully specified; position 1 is SO5P (5-oxoproline); internal lysine (LYEN-K) side chain azido-acetyl joined via triazolo-BCN carbamate / 6-aminohexanol linker to 5' end of … (SEQ ID NO 2, uniform MOE, phosphodiester, 3'-Cy3)) | 45 MFI | 53 MFI | 60 MFI | 73 MFI | 97 MFI |  |  |  |  |  |  | 
KPPPAGSSPGLYENKPRRPYIL (not fully specified (residue 1); also: X side chain clicked via BCN (triazole) and 6-aminohexanol linker to 5' end of oligonucleotide CCAGGCTGGTTATGACTCAG (MOE, 3'-Cy3)) | 67 MFI | 119 MFI | 246 MFI | 812 MFI | 1390 MFI | 51 MFI | 122 MFI | 309 MFI | 937 MFI | 2070 MFI | 3380 MFI | Mean Fluorescence Intensity (MFI), uptake 37C-4C, at 7 nM [4]: 53 MFI; Mean Fluorescence Intensity (MFI), uptake 37C-4C, at 22 nM [4]: 102 MFI; Mean Fluorescence Intensity (MFI), uptake 37C-4C, at 76 nM [4]: 259 MFI; Mean Fluorescence Intensity (MFI), uptake 37C-4C, at 260 nM [4]: 817 MFI; Mean Fluorescence Intensity (MFI), uptake 37C-4C, at 882 nM [4]: 2100 MFI; Mean Fluorescence Intensity (MFI), uptake 37C-4C, at 3000 nM [4]: 4220 MFI; Mean Fluorescence Intensity (MFI), uptake 37C-4C, at 12 nM [2]: 61 MFI; Mean Fluorescence Intensity (MFI), uptake 37C-4C, at 37 nM [2]: 124 MFI; Mean Fluorescence Intensity (MFI), uptake 37C-4C, at 111 nM [2]: 364 MFI; Mean Fluorescence Intensity (MFI), uptake 37C-4C, at 333 nM [2]: 839 MFI; Mean Fluorescence Intensity (MFI), uptake 37C-4C, at 1000 nM [2]: 1560 MFI
XLYENKPRRPYIL (X at position 1 is 2-azido-acetyl lysine joined via BCN to a Cy3-labeled phosphorodiamidate morpholino oligomer) [Compound No. 18-AJ9998, Morpholino oligomer-neurotensin conjugate 11 (Cy3 labeled)] |  |  |  |  |  |  |  |  |  |  |  | Mean Fluorescence Intensity (MFI), uptake 37C-4C, at 12 nM [5]: 70 MFI; Mean Fluorescence Intensity (MFI), uptake 37C-4C, at 37 nM [5]: 75 MFI; Mean Fluorescence Intensity (MFI), uptake 37C-4C, at 111 nM [5]: 86 MFI; Mean Fluorescence Intensity (MFI), uptake 37C-4C, at 333 nM [5]: 138 MFI; Mean Fluorescence Intensity (MFI), uptake 37C-4C, at 1000 nM [5]: 267 MFI; Mean Fluorescence Intensity (MFI), uptake 37C-4C, at 3000 nM [5]: 631 MFI
KPAPSGPSPGLYENKPRRPYIL (not fully specified (residue 1); also: X side chain clicked via BCN (triazole) and 6-aminohexanol linker to 5' end of oligonucleotide CCAGGCTGGTTATGACTCAG (MOE, 3'-Cy3)) |  |  |  |  |  | 53 MFI | 130 MFI | 413 MFI | 1230 MFI | 2430 MFI | 3390 MFI | 
KAGSIKPPPAGSSPGLYENKPRRPYIL (not fully specified (residue 1); also: X side chain clicked via BCN (triazole) and 6-aminohexanol linker to 5' end of oligonucleotide CCAGGCTGGTTATGACTCAG (MOE, 3'-Cy3)) |  |  |  |  |  | 90 MFI | 208 MFI | 609 MFI | 1530 MFI | 2510 MFI | 3390 MFI | 
KAGMSGASAGLYENKPRRPYIL (not fully specified (residue 1); also: X side chain clicked via BCN (triazole) and 6-aminohexanol linker to 5' end of oligonucleotide CCAGGCTGGTTATGACTCAG (MOE, 3'-Cy3)) |  |  |  |  |  | 55 MFI | 85 MFI | 306 MFI | 868 MFI | 1950 MFI | 2880 MFI | 
KPPPAGSSPGLYENKPRRPYIL (not fully specified (residue 1); also: oligonucleotide hybridized to complementary MOE strand CTGAGTCATAACCAGCCTGG (duplex)) [1162756 duplex (Compound No. 1162756 complexed to complementary MOE oligonucleotide …)] |  |  |  |  |  |  |  |  |  |  |  | Mean Fluorescence Intensity (MFI), uptake 37C-4C, at 12 nM [2]: 41 MFI; Mean Fluorescence Intensity (MFI), uptake 37C-4C, at 37 nM [2]: 52 MFI; Mean Fluorescence Intensity (MFI), uptake 37C-4C, at 111 nM [2]: 71 MFI; Mean Fluorescence Intensity (MFI), uptake 37C-4C, at 333 nM [2]: 130 MFI; Mean Fluorescence Intensity (MFI), uptake 37C-4C, at 1000 nM [2]: 278 MFI
CPPPAGSSPGLYENKPRRPYIL (not fully specified) |  |  |  |  |  |  |  |  |  |  |  | Mean Fluorescence Intensity (MFI), uptake 37C-4C, at 7 nM [4]: 47 MFI; Mean Fluorescence Intensity (MFI), uptake 37C-4C, at 22 nM [4]: 69 MFI; Mean Fluorescence Intensity (MFI), uptake 37C-4C, at 76 nM [4]: 205 MFI; Mean Fluorescence Intensity (MFI), uptake 37C-4C, at 260 nM [4]: 675 MFI; Mean Fluorescence Intensity (MFI), uptake 37C-4C, at 882 nM [4]: 1810 MFI; Mean Fluorescence Intensity (MFI), uptake 37C-4C, at 3000 nM [4]: 3140 MFI
K(Azidoacetyl)LYENKPKKPYIL (not fully specified; printed as 2-azido-acetyl-KLYENKPKKPYIL; also: azide joined via triazolo-BCN carbamate/6-aminohexanol linker to 5' end of 20-mer MOE oligonucleotide CCAGGCTGGTTATGACTCAG (uniform MOE, phosphodiester, 3'-Cy3)) [Compound No. 1270697, … peptide conjugated to 20-mer MOE oligonucleotide with 3'-Cy3] |  |  |  |  |  |  |  |  |  |  |  | Mean Fluorescence Intensity (MFI), uptake 37C-4C, at 12 nM [6]: 39 MFI; Mean Fluorescence Intensity (MFI), uptake 37C-4C, at 37 nM [6]: 51 MFI; Mean Fluorescence Intensity (MFI), uptake 37C-4C, at 111 nM [6]: 86 MFI; Mean Fluorescence Intensity (MFI), uptake 37C-4C, at 333 nM [6]: 185 MFI; Mean Fluorescence Intensity (MFI), uptake 37C-4C, at 1000 nM [6]: 474 MFI
XLYENKPKRPYIL (not fully specified; X at position 1 is 2-azido-acetyl lysine, joined via triazolo-BCN carbamate / 6-aminohexanol linker to 5' end of … (SEQ ID NO 2, uniform MOE, phosphodiester, 3'-Cy3)) [Compound No. 1270698, XLYENKPKRPYIL peptide conjugated to 20-mer MOE oligonucleotide with 3'-Cy3] |  |  |  |  |  |  |  |  |  |  |  | Mean Fluorescence Intensity (MFI), uptake 37C-4C, at 12 nM [6]: 35 MFI; Mean Fluorescence Intensity (MFI), uptake 37C-4C, at 37 nM [6]: 48 MFI; Mean Fluorescence Intensity (MFI), uptake 37C-4C, at 111 nM [6]: 78 MFI; Mean Fluorescence Intensity (MFI), uptake 37C-4C, at 333 nM [6]: 155 MFI; Mean Fluorescence Intensity (MFI), uptake 37C-4C, at 1000 nM [6]: 394 MFI
KLYENKPRKPYIL (not fully specified (residue 1)) [Compound No. 1270696, XLYENKPRKPYIL peptide conjugated to 20-mer MOE oligonucleotide with 3'-Cy3] |  |  |  |  |  |  |  |  |  |  |  | Mean Fluorescence Intensity (MFI), uptake 37C-4C, at 12 nM [6]: 43 MFI; Mean Fluorescence Intensity (MFI), uptake 37C-4C, at 37 nM [6]: 61 MFI; Mean Fluorescence Intensity (MFI), uptake 37C-4C, at 111 nM [6]: 138 MFI; Mean Fluorescence Intensity (MFI), uptake 37C-4C, at 333 nM [6]: 312 MFI; Mean Fluorescence Intensity (MFI), uptake 37C-4C, at 1000 nM [6]: 1100 MFI
